PMC5553193 (2015)
Ends that are not written are not given here.

Target: concanavalin A (Canavalia ensiformis, UniProt P02866)
Experiment: ITC

Sequence of concanavalin A (P02866 whole entry, looked up): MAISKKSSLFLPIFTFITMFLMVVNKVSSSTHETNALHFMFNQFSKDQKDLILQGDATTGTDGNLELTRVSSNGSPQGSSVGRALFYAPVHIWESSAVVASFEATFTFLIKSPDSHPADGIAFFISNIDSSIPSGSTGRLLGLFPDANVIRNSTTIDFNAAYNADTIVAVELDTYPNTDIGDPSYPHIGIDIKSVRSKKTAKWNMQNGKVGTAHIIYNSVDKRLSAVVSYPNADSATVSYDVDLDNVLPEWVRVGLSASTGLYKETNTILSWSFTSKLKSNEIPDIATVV

Man-WYDLFDNINS [Man-WYDLFDNINS (L30)]
Kd: 4.3 µM

Man-WYDLF [Man-WYDLF (L37)]
Kd: 4.6 µM
